We go through 1 substance from PMC4117764.

For the assay, the target named is GST-tagged p21C-terminal peptide. In words: pull-down.

For “proliferating cell nuclear antigen (PCNA), endogenous (from UniProt P12004 1-261) (natural protein)”, the extent of PCNA depletion was more than 95%.
